Results as given in US20260234220A1 (OSPEDALE SAN RAFFAELE S R L, published 2026).

Molecular target: S protein of SARS-CoV-1 on pseudotyped particles (SARS-CoV-1, UniProt P59594 14-1255)
Test: cell-based or functional assay

B1: IgG BU.54 (antibody, V domains shown)
VH: LEWGPGLVKASQTLSLTCTVSGGSISSRNFYWSWIRQPGGKGLEWIGRIYTSGSTNYNPSLKSRVTISLDTSKSQFSLKLSSVTAADTAVYYCARGTFYYDRSGNGRLDPLDYWGQGTLVTVS
VL: ELVMTQSPSSLSASVGDRVTITCQASQDISNYLNWYQQKPGKAPKLLIYDASNLETGVPSRFSGSGFGTHFTLTISSLQPEDFATYYCQQHDNLVTFGGGTKVEIK
With B1 the “neutralizing activity expressed as IC50 µg/ml (pseudovirus, luciferase)” value was 0.4 µg/mL.

B2: IgG BU.7 (antibody, V domains shown)
VH: LEWGPGLVKPSETLSLTCTVSGGSISSINYYWVWIRQPPGKGLEWIGNINYSGTTNYNPSLKSRVTISVDTSKNQFSLKLSSVTAADTAVYYCARQTYYYDRRGYYRPEPIEHWGQGTLVTVSS
VL: ELVMTQSPSFLSASVGDRVTITCRASQDVRSFLHWYQQRPGKAPKLLIYAASMVSSEVPSRFSGSGSETDFTLTIDGLQPEDVATYFCQQTYDTPLTFGGGTAVDIK
For B2, the “neutralizing activity expressed as IC50 µg/ml (pseudovirus, luciferase)” value was 1.3 µg/mL.
